Experimental data: US20200338203A1 (Bicycle, published 2020)
Numbered stars: 1 amine (or outer) side, 2 acyl side, 3 side chain; on linkers, the order of the positions; unused ones are H or OH. Bridge positions count the residues as written; N and C are the ends. Square brackets hold non-standard residues; d marks the D form. Ends that are not written are not given here. Dip = N[C@H](C(=O)O)C(c1ccccc1)c1ccccc1; 1Nal = N[C@@H](Cc1cccc2ccccc12)C(=O)O; TBMB = c1c(C[*:1])cc(C[*:3])cc1C[*:2]; Ala(cPr) = N[C@@H](CC1CC1)C(=O)O; hArg = N=C(N)NCCCC[C@H](N)C(=O)O; Gly(cPr) = N[C@H](C(=O)O)C1CC1; Cba = N[C@@H](CC1CCC1)C(=O)O; Tle = CC(C)(C)[C@H](N)C(=O)O; Aib = CC(C)(N)C(=O)O; Sar = CNCC(=O)O

What follows are binders tested against T1, Human EphA2 (Ecto) (Human, UniProt P29317 24-537) (assay: FP competition; competitor Compound 18).
T1 construct: extracellular domain
T1 sequence (P29317 24-537): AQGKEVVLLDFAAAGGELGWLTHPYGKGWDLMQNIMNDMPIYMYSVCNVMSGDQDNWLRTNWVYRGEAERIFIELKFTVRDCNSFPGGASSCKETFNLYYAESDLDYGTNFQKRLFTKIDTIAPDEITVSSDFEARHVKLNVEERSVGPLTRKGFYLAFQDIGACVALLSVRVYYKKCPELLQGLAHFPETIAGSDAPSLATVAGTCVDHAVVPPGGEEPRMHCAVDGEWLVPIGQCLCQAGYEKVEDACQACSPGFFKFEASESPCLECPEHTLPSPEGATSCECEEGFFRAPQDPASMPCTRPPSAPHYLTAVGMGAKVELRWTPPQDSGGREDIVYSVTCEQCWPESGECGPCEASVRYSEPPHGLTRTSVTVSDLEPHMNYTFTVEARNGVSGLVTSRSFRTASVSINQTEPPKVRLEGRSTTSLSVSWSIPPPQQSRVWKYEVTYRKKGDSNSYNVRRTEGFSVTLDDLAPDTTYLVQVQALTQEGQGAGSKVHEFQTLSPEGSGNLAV
Protocol: Peptides without a fluorescent tag were tested in competition with a peptide with a fluorescent tag and a known Kd (Table 2). Peptides were diluted to an appropriate concentration in assay buffer as described in the direct binding assay with a maximum of 5% DMSO, then serially diluted 1 in 2. Five μL of diluted peptide was added to the plate followed by 10 μL of human or mouse EphA2 (Table 1) at a fixed concentration which was dependent on the fluorescent peptide used (Table 2), then 10 μL fluorescent peptide added. Measurements were conducted as for the direct binding assay, however the gain was determined prior to the first measurement.

In order of falling Ki:
1. ADVHCPWAPFWCPVNRPGCA (linker 5-12-19 via TBMB) [Compound 151]  394 nM
2. [Sar][Sar]ACPWGPFWCPVNRP[dA]C (linker 4-11-18 via TBMB) [Compound 112]  89 nM
3. ADVHCP[Dip]GPFWCPVNRPGCA (linker 5-12-19 via TBMB) [Compound 149]  52.8 nM
4. ADVHCPWGPFWCPVN[dA]PGCA (linker 5-12-19 via TBMB) [Compound 156]  14.9 nM
5. Ac-[Sar][Sar]A[dD]VTCPWGPFWCPLNRPGC (linker 7-14-21 via TBMB) [Compound 174]  9.1 nM
6. Ac-[Sar][Sar]A[dD]VTCPWGPAWCPVNRPGC (linker 7-14-21 via TBMB) [Compound 173]  6.69 nM
7. [Sar][Sar]ACP[1Nal]GPFWCP[Tle]N[hArg][Aib]GC (linker 4-11-18 via TBMB) [Compound 138]  5.1 nM
8. Ac-[Sar][Sar]A[dD]VTCPWGPFWCPVN[hArg]P[dD]C (linker 7-14-21 via TBMB) [Compound 176]  4.89 nM
9. Ac-[Sar][Sar]A[dD]VTCPWGP[hArg]WCPVNRPGC (linker 7-14-21 via TBMB) [Compound 171]  4.88 nM
10. Ac-[Sar][Sar]A[dD][Ala(cPr)]TCPWGPFWCPVNRPGC (linker 7-14-21 via TBMB) [Compound 161]  4.44 nM
11. Ac-[Sar][Sar]A[dD]VTCPWGPFWCPVNR[Aib][dD]C (linker 7-14-21 via TBMB) [Compound 177]  4.43 nM
12. Ac-[Sar][Sar]A[dD]VTCPWGPNWCPVNRPGC (linker 7-14-21 via TBMB) [Compound 172]  3.96 nM
13. Ac-[Sar][Sar]A[dD]VTCPWG[Aib]FWCP[Tle]NR[Aib]GC (linker 7-14-21 via TBMB) [Compound 180]  3.83 nM
14. AHDVPCP[1Nal]G[Aib]FWCP[Tle]N[hArg]PGC (linker 6-13-20 via TBMB) [Compound 191]  3.1 nM
15. Ac-[Sar][Sar]A[dD]VTCPWG[Aib]F[1Nal]CPVNR[Aib]GC (linker 7-14-21 via TBMB) [Compound 179]  2.94 nM
16. Ac-[Sar][Sar]A[dD][dD]TCPWGPFWCPVNRPGC (linker 7-14-21 via TBMB) [Compound 159]  2.85 nM
17. Ac-[Sar][Sar]A[dD][Cba]TCPWGPFWCPVNRPGC (linker 7-14-21 via TBMB) [Compound 160]  2.6 nM
18. Ac-[Sar][Sar]A[dD][Gly(cPr)]TCPWGPFWCPVNRPGC (linker 7-14-21 via TBMB) [Compound 162]  2.55 nM
19. Ac-[Sar][Sar]A[dD]VTCP[1Nal]G[Aib]FWCPVNR[Aib]GC (linker 7-14-21 via TBMB) [Compound 178]  2.4 nM
20. Ac-[Sar][Sar]AD[Tle]TCPWGPFWCPVNRPGC (linker 7-14-21 via TBMB) [Compound 164]  2.25 nM
21. [dD]VTCPWGPFWCPVNRPGC (linker 4-11-18 via TBMB) [Compound 185]  2.17 nM
22. ADVHCPWGPFWCPV[dA]RPGCA (linker 5-12-19 via TBMB) [Compound 155]  2 nM
23. ADVHCPWGAFWCPVNRPGCA (linker 5-12-19 via TBMB) [Compound 152]  1.8 nM
24. Ac-[Sar][Sar]A[dD]VTCPWGPFWCPVNRP[dD]C (linker 7-14-21 via TBMB) [Compound 175]  1.78 nM
25. AHDVPCP[1Nal]G[Aib]FWCP[Tle]NR[Aib]GC (linker 6-13-20 via TBMB) [Compound 192]  1.75 nM
26. AHDVPCP[1Nal]GPFWCPVNRPGC (linker 6-13-20 via TBMB) [Compound 188]  1.45 nM
27. Ac-[Sar][Sar]A[dD]VTCP[1Nal]G[Aib]F[1Nal]CPVNR[Aib]GC (linker 7-14-21 via TBMB) [Compound 181]  1.37 nM
28. AHDVPCPWGPF[1Nal]CPVNRPGC (linker 6-13-20 via TBMB) [Compound 189]  1.3 nM
29. Ac-[Sar][Sar]ADVHCPWGPFWCPVNRPGC (linker 7-14-21 via TBMB) [Compound 148]  1.2 nM
30. Ac-[Sar][Sar]ADVTCPWGPFWCPVNRPGC (linker 7-14-21 via TBMB) [Compound 157]  0.91 nM
31. AHDVPCP[1Nal]GPFWCP[Tle]NRPGC (linker 6-13-20 via TBMB) [Compound 190]  0.7 nM
32. Ac-[Sar][Sar]A[dD]VTCP[1Nal]GPFWCPVNRPGC (linker 7-14-21 via TBMB) [Compound 170]  0.6 nM
33. Ac-[Sar][Sar]AHDVPCPWGPFWCPVNRPGC (linker 8-15-22 via TBMB) [Compound 193]  0.59 nM
34. ADVHCPWG[Aib]FWCPVNRPGCA (linker 5-12-19 via TBMB) [Compound 153]  0.51 nM
35. AHDVPCP[1Nal]GPFWCPVNRPGCA (linker 6-13-20 via TBMB) [Compound 187]  0.32 nM
36. [Sar][Sar]ACP[1Nal]GPFWCP[Tle]N[hArg]PGC (linker 4-11-18 via TBMB) [Compound 130]  0.29 nM
37. ADVHCP[1Nal]GPFWCPVNRPGCA (linker 5-12-19 via TBMB) [Compound 150]  0.12 nM
